Values of other authors in article PMC3694163.

What was measured:
IGFBP6 (Homo sapiens) = IGFBP6 (Homo sapiens) (UniProt P24592)
IR (Homo sapiens) = IR (Homo sapiens) (UniProt P06213)

insulin, sequence (P01308 90-110): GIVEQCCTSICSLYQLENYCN
IGFBP6 (Homo sapiens), sequence (P24592 28-240): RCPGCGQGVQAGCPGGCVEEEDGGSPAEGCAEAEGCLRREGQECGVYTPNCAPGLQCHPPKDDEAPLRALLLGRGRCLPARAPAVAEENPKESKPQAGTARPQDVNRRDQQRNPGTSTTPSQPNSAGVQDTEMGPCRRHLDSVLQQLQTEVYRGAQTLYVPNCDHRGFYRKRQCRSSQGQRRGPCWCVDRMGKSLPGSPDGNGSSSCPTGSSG

| Kd (IGFBP6 (Homo sapiens)) | Kd (IR (Homo sapiens)) | Substance |
| --- | --- | --- |
| 5.7 nM |  | IGF-II (from UniProt P01344) |
|  | 0.1 nM | insulin (from UniProt P01308) |
